Test results reported in US20090317414A1, “CANCER VACCINE COMPRISING A MUCIN 1 (MUC1) T CELL EPITOPE-DERIVED PEPTIDE” (4G VACCINES PTY LTD, priority 2006, published 2009).

Experiments:
[1] = target: T1, soluble H-2K^b (soluble extracellular domains; heavy chain residues 1-274 with C-terminal His-tag and β2-microglobulin residues 1-99) (mouse); experiment: inhibition assay with soluble H-2K^b, 37° C.
T1 chain: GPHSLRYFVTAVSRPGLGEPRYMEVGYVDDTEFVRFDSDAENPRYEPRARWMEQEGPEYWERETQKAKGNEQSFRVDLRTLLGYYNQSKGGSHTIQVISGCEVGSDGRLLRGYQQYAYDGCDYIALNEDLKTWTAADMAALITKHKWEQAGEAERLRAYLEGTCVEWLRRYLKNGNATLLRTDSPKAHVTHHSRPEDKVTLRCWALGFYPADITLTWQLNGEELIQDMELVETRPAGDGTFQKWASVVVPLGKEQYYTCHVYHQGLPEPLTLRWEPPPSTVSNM

[2] = target: T1, soluble H-2K^b (soluble extracellular …); experiment: inhibition assay with soluble H-2K^b, 4° C.
[3] = target: T1, soluble H-2K^b (soluble extracellular …); experiment: inhibition assay with soluble H-2K^b, 23° C.

RGYVYQGL (modifications not checked) [VSV8 (RGYVYQGL), Vesicular stomatitis virus NP52-59] gave a Kd [1] of 163 nM, a Kd [2] of 34 nM and a Kd [3] of 27 nM.
